Where no end group is shown, it is not given here.
How the values were obtained:
[1] = target: T1, Membrane type 1 matrix metalloproteinase (MT1-MMP) (Homo sapiens, UniProt P50281 112-582); assay: flow cytometry on cells expressing MT1-MMP
[2] = target: T1, Membrane type 1 matrix …; assay: cell-based or functional assay

Binder | binding result [1] | IC50, 3D invasion assay (human MDA-MB-231 breast cancer cell invasion) [2]
GYPMP (also: biotinylated (site not given here), also called biotinylated IS4-5 peptides) [biotinylated IS4-5 peptide] | binds | 
GYPMP [IS4-5 peptide (GYPMP)] |  | 1500 nM
GYPKSALR [IVS4-8 peptide (GYPKSALR)] |  | 10000 nM
VMDGYPMP [IS4-8 peptide (VMDGYPMP)] |  | 1500 nM
